For one sequence, binding signal (% of baseline shift (decreased by 60%)) results are on record in paper PMC3871639.

The target of this data set is T1, Stat5 (mouse liver nuclear extract, identified by WEMSA immunoblot) (mouse) (UniProt P42232).
T1 sequence: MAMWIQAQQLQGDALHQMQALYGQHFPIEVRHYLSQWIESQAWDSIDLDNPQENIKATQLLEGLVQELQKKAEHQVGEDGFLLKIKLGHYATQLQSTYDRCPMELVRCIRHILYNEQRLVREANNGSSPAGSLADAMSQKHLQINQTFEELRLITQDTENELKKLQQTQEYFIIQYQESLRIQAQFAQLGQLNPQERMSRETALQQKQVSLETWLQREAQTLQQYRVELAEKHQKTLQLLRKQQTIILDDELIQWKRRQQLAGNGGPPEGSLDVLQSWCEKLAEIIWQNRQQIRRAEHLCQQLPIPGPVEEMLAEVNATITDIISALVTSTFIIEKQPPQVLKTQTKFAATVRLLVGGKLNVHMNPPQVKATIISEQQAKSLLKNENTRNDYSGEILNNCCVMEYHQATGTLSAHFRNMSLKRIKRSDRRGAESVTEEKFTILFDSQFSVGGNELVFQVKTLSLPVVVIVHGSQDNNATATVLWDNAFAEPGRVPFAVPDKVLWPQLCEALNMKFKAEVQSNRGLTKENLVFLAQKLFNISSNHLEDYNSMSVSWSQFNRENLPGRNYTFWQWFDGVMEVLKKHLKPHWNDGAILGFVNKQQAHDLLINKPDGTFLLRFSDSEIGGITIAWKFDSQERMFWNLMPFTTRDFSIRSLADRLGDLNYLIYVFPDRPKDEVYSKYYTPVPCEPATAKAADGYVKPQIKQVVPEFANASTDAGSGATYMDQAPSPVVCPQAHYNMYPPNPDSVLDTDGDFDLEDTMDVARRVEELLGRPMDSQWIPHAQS
Put plainly: EMSA + immunoblot of shifted complex (WEMSA). The following applies: Li-Cor EMSA buffer kit: 1x binding buffer, poly(dI-dC) 1 ug/uL (in 10 mM Tris, 1 mM EDTA, pH 7.5), 25 mM DTT/2.5% Tween-20, 1% NP-40, 100 mM MgCl2 (as listed …).

Consider “GTAATTCCTAGATTCATGGAAGAG (double strand) [Stat5 element probe of mouse Tmprss6 promoter]”, for which the binding signal (% of baseline shift (decreased by 60%)) amounted to 40.
